Results: US20240049668A1 (VILMORIN AND CIE, published 2024)

T1: Movement Protein of ToBRFV (Tomato Brown Rugose Fruit Virus …, UniProt A0A0S2SZW1 1-266)
T1 sequence: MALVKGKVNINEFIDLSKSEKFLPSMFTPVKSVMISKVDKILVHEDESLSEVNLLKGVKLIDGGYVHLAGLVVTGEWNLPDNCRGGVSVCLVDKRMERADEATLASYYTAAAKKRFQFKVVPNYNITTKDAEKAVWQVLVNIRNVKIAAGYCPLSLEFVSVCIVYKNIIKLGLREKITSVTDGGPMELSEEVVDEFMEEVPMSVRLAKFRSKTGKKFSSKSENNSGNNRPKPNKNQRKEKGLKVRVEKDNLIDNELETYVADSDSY


Biological target: T1, Movement Protein of ToBRFV
Assay: cell-based or functional assay

Row | Binder | HR to MP Rugose [HR scale 0-4]
1 | TM-2-2 variant L11_10 (767 I) (receptor) MAEILLTSVINKSVEIAGNLLIQEGKRLYWLKEDIDWLQREMRHIRSYVDNAKAKEAGGDSRVKNLLKDIQELAGDVEDLLDDFLPKIQQSNKFNYCLKRSSFADEFAMEIEKIKRRVVDIDRIRKTYNIIDTDNNNDDCVLLDRRRLFLHADETEIIGLDDDFNMLQAKLLNQDLHYGVVSIVGMPGLGKTTLAKKLYRLIRDQFECSGLVYVSQQPRASEILLDIAKQIGLTEQKMKENLEDNLRSLLKIKRYVILLDDIWDVEIWDDLKLVLPECDSKVGSRMIITSRNSNVGRYIGGESSLHALQPLESEKSFELFTKKIFNFDDNNSWANASPDLVNIGRNIVGRCGGIPLAIVVTAGMLRARERTEHAWNRVLESMGHKVQDGCAKVLALSYNDLPIASRPCFLYFGLYPEDHEIRAFDLINMWIAEKFIVVNSGNRREAEDLAEDVLNDLVSRNLIQLAKRTYNGRISSCRIHDLLHSLCVDLAKESNFFHTAHDAFGDPGNVARLRRITFYSDNVMIEFFRSNPKLEKLRVLFCFAKDPSIFSHMAYFDFKLLHTLVVVMSQSFQAYVTIPSKFGNMTCLRYLRLEGNICGKLPNSIVKLTRLETIDIDRRSLIQPPSGVWESKHLRHLCYRDYGQACNSCFSISSFYPNIYSLHPNNLQTLMWIPDKFFEPRLLHRLINLRKLGILGVSNSTVKMLSIFSPVLKALEVLKLSFSSDPSEQIKLSSYPHIAKLHLNVNRTMALNSQSFPPNLIKLTLAIFSVDRYILAVLKTFPKLRKLKMFICKYNEEKMDLSGEANGYSFPQLEVLHIHSPNGLSEVTCTDDVSMPKLKKLLLTGFHCRISLSERLKKLSK | 0
2 | TM-2-2 variant L11_19 (767 N) (receptor) MAEILLTSVINKSVEIAGNLLIQEGKRLYWLKEDIDWLQREMRHIRSYVDNAKAKEAGGDSRVKNLLKDIQELAGDVEDLLDDFLPKIQQSNKFNYCLKRSSFADEFAMEIEKIKRRVVDIDRIRKTYNIIDTDNNNDDCVLLDRRRLFLHADETEIIGLDDDFNMLQAKLLNQDLHYGVVSIVGMPGLGKTTLAKKLYRLIRDQFECSGLVYVSQQPRASEILLDIAKQIGLTEQKMKENLEDNLRSLLKIKRYVILLDDIWDVEIWDDLKLVLPECDSKVGSRMIITSRNSNVGRYIGGESSLHALQPLESEKSFELFTKKIFNFDDNNSWANASPDLVNIGRNIVGRCGGIPLAIVVTAGMLRARERTEHAWNRVLESMGHKVQDGCAKVLALSYNDLPIASRPCFLYFGLYPEDHEIRAFDLINMWIAEKFIVVNSGNRREAEDLAEDVLNDLVSRNLIQLAKRTYNGRISSCRIHDLLHSLCVDLAKESNFFHTAHDAFGDPGNVARLRRITFYSDNVMIEFFRSNPKLEKLRVLFCFAKDPSIFSHMAYFDFKLLHTLVVVMSQSFQAYVTIPSKFGNMTCLRYLRLEGNICGKLPNSIVKLTRLETIDIDRRSLIQPPSGVWESKHLRHLCYRDYGQACNSCFSISSFYPNIYSLHPNNLQTLMWIPDKFFEPRLLHRLINLRKLGILGVSNSTVKMLSIFSPVLKALEVLKLSFSSDPSEQIKLSSYPHIAKLHLNVNRTMALNSQSFPPNLIKLTLANFSVDRYILAVLKTFPKLRKLKMFICKYNEEKMDLSGEANGYSFPQLEVLHIHSPNGLSEVTCTDDVSMPKLKKLLLTGFHCRISLSERLKKLSK | 0
3 | TM-2-2 variant L11_11 (767 C) (receptor) MAEILLTSVINKSVEIAGNLLIQEGKRLYWLKEDIDWLQREMRHIRSYVDNAKAKEAGGDSRVKNLLKDIQELAGDVEDLLDDFLPKIQQSNKFNYCLKRSSFADEFAMEIEKIKRRVVDIDRIRKTYNIIDTDNNNDDCVLLDRRRLFLHADETEIIGLDDDFNMLQAKLLNQDLHYGVVSIVGMPGLGKTTLAKKLYRLIRDQFECSGLVYVSQQPRASEILLDIAKQIGLTEQKMKENLEDNLRSLLKIKRYVILLDDIWDVEIWDDLKLVLPECDSKVGSRMIITSRNSNVGRYIGGESSLHALQPLESEKSFELFTKKIFNFDDNNSWANASPDLVNIGRNIVGRCGGIPLAIVVTAGMLRARERTEHAWNRVLESMGHKVQDGCAKVLALSYNDLPIASRPCFLYFGLYPEDHEIRAFDLINMWIAEKFIVVNSGNRREAEDLAEDVLNDLVSRNLIQLAKRTYNGRISSCRIHDLLHSLCVDLAKESNFFHTAHDAFGDPGNVARLRRITFYSDNVMIEFFRSNPKLEKLRVLFCFAKDPSIFSHMAYFDFKLLHTLVVVMSQSFQAYVTIPSKFGNMTCLRYLRLEGNICGKLPNSIVKLTRLETIDIDRRSLIQPPSGVWESKHLRHLCYRDYGQACNSCFSISSFYPNIYSLHPNNLQTLMWIPDKFFEPRLLHRLINLRKLGILGVSNSTVKMLSIFSPVLKALEVLKLSFSSDPSEQIKLSSYPHIAKLHLNVNRTMALNSQSFPPNLIKLTLACFSVDRYILAVLKTFPKLRKLKMFICKYNEEKMDLSGEANGYSFPQLEVLHIHSPNGLSEVTCTDDVSMPKLKKLLLTGFHCRISLSERLKKLSK | 0
4 | TM-2-2 variant L11_15 (767 L) (receptor) MAEILLTSVINKSVEIAGNLLIQEGKRLYWLKEDIDWLQREMRHIRSYVDNAKAKEAGGDSRVKNLLKDIQELAGDVEDLLDDFLPKIQQSNKFNYCLKRSSFADEFAMEIEKIKRRVVDIDRIRKTYNIIDTDNNNDDCVLLDRRRLFLHADETEIIGLDDDFNMLQAKLLNQDLHYGVVSIVGMPGLGKTTLAKKLYRLIRDQFECSGLVYVSQQPRASEILLDIAKQIGLTEQKMKENLEDNLRSLLKIKRYVILLDDIWDVEIWDDLKLVLPECDSKVGSRMIITSRNSNVGRYIGGESSLHALQPLESEKSFELFTKKIFNFDDNNSWANASPDLVNIGRNIVGRCGGIPLAIVVTAGMLRARERTEHAWNRVLESMGHKVQDGCAKVLALSYNDLPIASRPCFLYFGLYPEDHEIRAFDLINMWIAEKFIVVNSGNRREAEDLAEDVLNDLVSRNLIQLAKRTYNGRISSCRIHDLLHSLCVDLAKESNFFHTAHDAFGDPGNVARLRRITFYSDNVMIEFFRSNPKLEKLRVLFCFAKDPSIFSHMAYFDFKLLHTLVVVMSQSFQAYVTIPSKFGNMTCLRYLRLEGNICGKLPNSIVKLTRLETIDIDRRSLIQPPSGVWESKHLRHLCYRDYGQACNSCFSISSFYPNIYSLHPNNLQTLMWIPDKFFEPRLLHRLINLRKLGILGVSNSTVKMLSIFSPVLKALEVLKLSFSSDPSEQIKLSSYPHIAKLHLNVNRTMALNSQSFPPNLIKLTLALFSVDRYILAVLKTFPKLRKLKMFICKYNEEKMDLSGEANGYSFPQLEVLHIHSPNGLSEVTCTDDVSMPKLKKLLLTGFHCRISLSERLKKLSK | 0
5 | TM-2-2 variant L11_16 (767 G) (receptor) MAEILLTSVINKSVEIAGNLLIQEGKRLYWLKEDIDWLQREMRHIRSYVDNAKAKEAGGDSRVKNLLKDIQELAGDVEDLLDDFLPKIQQSNKFNYCLKRSSFADEFAMEIEKIKRRVVDIDRIRKTYNIIDTDNNNDDCVLLDRRRLFLHADETEIIGLDDDFNMLQAKLLNQDLHYGVVSIVGMPGLGKTTLAKKLYRLIRDQFECSGLVYVSQQPRASEILLDIAKQIGLTEQKMKENLEDNLRSLLKIKRYVILLDDIWDVEIWDDLKLVLPECDSKVGSRMIITSRNSNVGRYIGGESSLHALQPLESEKSFELFTKKIFNFDDNNSWANASPDLVNIGRNIVGRCGGIPLAIVVTAGMLRARERTEHAWNRVLESMGHKVQDGCAKVLALSYNDLPIASRPCFLYFGLYPEDHEIRAFDLINMWIAEKFIVVNSGNRREAEDLAEDVLNDLVSRNLIQLAKRTYNGRISSCRIHDLLHSLCVDLAKESNFFHTAHDAFGDPGNVARLRRITFYSDNVMIEFFRSNPKLEKLRVLFCFAKDPSIFSHMAYFDFKLLHTLVVVMSQSFQAYVTIPSKFGNMTCLRYLRLEGNICGKLPNSIVKLTRLETIDIDRRSLIQPPSGVWESKHLRHLCYRDYGQACNSCFSISSFYPNIYSLHPNNLQTLMWIPDKFFEPRLLHRLINLRKLGILGVSNSTVKMLSIFSPVLKALEVLKLSFSSDPSEQIKLSSYPHIAKLHLNVNRTMALNSQSFPPNLIKLTLAGFSVDRYILAVLKTFPKLRKLKMFICKYNEEKMDLSGEANGYSFPQLEVLHIHSPNGLSEVTCTDDVSMPKLKKLLLTGFHCRISLSERLKKLSK | 0
